The values below are quoted from earlier work in PMC6232131.

This data set addresses fibrinogen beta (Homo sapiens) (UniProt P02675).
UniProt P02675, sequence (P02675 45-491): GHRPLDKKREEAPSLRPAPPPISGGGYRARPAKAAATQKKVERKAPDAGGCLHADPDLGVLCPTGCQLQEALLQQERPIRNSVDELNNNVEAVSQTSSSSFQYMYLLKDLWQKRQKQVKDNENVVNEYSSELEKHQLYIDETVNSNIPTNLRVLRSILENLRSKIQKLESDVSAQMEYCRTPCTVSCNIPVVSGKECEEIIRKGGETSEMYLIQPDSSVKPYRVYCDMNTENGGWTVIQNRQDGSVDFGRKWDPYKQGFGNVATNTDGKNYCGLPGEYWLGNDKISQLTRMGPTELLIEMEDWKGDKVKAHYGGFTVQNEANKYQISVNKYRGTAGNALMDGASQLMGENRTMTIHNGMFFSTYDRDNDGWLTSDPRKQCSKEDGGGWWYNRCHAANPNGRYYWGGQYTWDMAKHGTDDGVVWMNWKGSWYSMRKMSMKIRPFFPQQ

In the case of SdrG N2N3 (from UniProt Q9KI13), the Kd was 400 nM.

In general, Kd refers to the concentration at which binding is half-saturated.
